The results in this text go back to publication PMC3689955.

The target in this assay is XRCC4/Ligase IV (XL) (UniProt Q13426).
XRCC4/Ligase IV (XL), sequence (Q13426 whole entry, chain 1 of 2): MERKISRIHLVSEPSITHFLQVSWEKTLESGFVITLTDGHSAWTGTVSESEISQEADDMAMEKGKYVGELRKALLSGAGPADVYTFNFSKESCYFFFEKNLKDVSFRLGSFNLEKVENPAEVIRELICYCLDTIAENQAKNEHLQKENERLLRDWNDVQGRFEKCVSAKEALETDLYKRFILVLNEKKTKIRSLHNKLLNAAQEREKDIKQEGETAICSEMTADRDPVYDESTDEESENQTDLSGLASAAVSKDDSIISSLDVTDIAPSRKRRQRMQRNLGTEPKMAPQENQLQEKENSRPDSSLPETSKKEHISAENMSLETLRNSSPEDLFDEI
XRCC4/Ligase IV (XL), sequence (P49917 whole entry, chain 2 of 2, further chain): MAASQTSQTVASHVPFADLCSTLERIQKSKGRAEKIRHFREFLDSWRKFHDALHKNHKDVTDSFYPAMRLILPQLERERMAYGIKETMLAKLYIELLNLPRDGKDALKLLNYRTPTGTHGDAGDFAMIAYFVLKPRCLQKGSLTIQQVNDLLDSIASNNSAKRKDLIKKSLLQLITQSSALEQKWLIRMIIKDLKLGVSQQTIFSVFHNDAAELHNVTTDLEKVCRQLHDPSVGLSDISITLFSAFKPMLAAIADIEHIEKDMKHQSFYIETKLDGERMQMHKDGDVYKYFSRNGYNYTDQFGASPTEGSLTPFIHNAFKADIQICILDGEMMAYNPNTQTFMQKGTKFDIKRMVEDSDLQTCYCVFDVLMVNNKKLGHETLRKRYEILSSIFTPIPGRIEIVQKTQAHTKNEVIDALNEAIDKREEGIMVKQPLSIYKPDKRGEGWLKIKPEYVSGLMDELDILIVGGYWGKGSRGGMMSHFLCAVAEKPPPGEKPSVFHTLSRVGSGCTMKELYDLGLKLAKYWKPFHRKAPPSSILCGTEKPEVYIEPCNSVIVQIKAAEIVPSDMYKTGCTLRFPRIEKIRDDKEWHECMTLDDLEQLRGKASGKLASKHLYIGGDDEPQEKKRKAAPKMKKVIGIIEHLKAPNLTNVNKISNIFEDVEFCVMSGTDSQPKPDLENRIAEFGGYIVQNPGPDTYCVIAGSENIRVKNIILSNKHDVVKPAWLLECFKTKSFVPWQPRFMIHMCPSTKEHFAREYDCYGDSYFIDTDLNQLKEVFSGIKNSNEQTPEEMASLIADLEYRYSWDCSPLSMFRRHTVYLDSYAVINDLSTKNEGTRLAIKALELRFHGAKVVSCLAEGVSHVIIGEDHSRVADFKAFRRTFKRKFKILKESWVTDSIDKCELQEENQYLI

XRCC4-like factor (XLF, also known as Cernunnos), sequence (Q9H9Q4 whole entry): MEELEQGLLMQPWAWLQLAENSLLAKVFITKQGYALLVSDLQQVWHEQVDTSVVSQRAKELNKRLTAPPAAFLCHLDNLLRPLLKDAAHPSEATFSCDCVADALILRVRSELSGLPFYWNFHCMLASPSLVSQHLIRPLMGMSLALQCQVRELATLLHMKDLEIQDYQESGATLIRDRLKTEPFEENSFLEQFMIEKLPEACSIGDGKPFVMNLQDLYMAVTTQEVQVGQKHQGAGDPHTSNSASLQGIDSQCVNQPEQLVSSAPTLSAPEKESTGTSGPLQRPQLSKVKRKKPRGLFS

Consider “XRCC4-like factor (XLF, also known as Cernunnos) (from UniProt Q9H9Q4 1-299) (natural protein)”, for which the stoichiometry N (XL to XLF molar ratio) stood at 1.
